Data from patent publication US20250019437A1.

T1: human TREM2 (triggering receptor expressed on myeloid cells 2) (human) (UniProt Q9NZC2)
T1 sequence (looked up): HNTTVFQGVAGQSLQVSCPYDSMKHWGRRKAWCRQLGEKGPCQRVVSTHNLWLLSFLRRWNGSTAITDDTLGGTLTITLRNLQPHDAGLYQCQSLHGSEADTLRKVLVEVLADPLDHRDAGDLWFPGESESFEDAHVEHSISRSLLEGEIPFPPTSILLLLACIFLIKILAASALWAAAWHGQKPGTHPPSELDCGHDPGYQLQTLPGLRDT


Columns and labels:
[1] = target: T1, human TREM2 (triggering receptor expressed on myeloid cells 2) (human); assay: 1st screen, 110 nM Ab
[2] = target: T1, human TREM2 (triggering receptor expressed on myeloid cells 2) (human); assay: 2nd screen, 100 nM Ab

Binding Signal (fold over 6E7 parental antibody) [1] [fold] | Binding Signal (fold over 6E7 parental antibody) [2] [fold] | Binder
0.35 | 1.05 | 6E7 antibody affinity modulation variant V93 (antibody, V domains shown) VH: EVQLVQSGAEVKKPGESLKISCKGSGYSFTSYWIAWVRQMPGKGLEWMGIIYPGDSDTRYSPSFQGQVTISADKSISTAYLQWSSLKASDTAMYFCARQRTFYYDSSDYFDYWGQGTLVTVSS VL: DIQMTQSPSSVSASVGDRVTITCRASQGISGWLAWYQQKPGKAPKLLIYAASSLQNGVPSRFSGSGSGTDFTLTISSLQPEDFATYFCQQADSFPRTFGQGTKLEIK
0.25 | 0.61 | 6E7 antibody affinity modulation variant V91 (antibody, V domains shown) VH: EVQLVQSGAEVKKPGESLKISCKGSGYSFTSYWIAWVRQMPGKGLEWMGIIYPDDSDTRYSPSFQGQVTISADKSISTAYLQWSSLKASDTAMYFCARQRTFYYDSSDYFDYWGQGTLVTVSS VL: DIQMTQSPSSVSASVGDRVTITCRASQGISSWLAWYQQKPGKAPKLLIYAASSLQNGVPSRFSGSGSGTDFTLTISSLQPEDFATYFCQQADSFPRTFGQGTKLEIK
0.31 | 0.87 | 6E7 antibody affinity modulation variant V94 (antibody, V domains shown) VH: EVQLVQSGAEVKKPGESLKISCKGSGYSFTSYWIAWVRQMPGKGLEWMGIIYPGDSDTRYSPSFQGQVTISADKSISTAYLQWSSLKASDTAMYFCARQRTFYYDSSDYFDYWGQGTLVTVSS VL: DIQMTQSPSSVSASVGDRVTITCRASQGISSWLAWYQQKPGKAPKLLIYAAASLQNGVPSRFSGSGSGTDFTLTISSLQPEDFATYFCQQADSFPRTFGQGTKLEIK
0.22 | 0.65 | 6E7 antibody affinity modulation variant V92 (antibody, V domains shown) VH: EVQLVQSGAEVKKPGESLKISCKGSGYSFTSYWIAWVRQMPGKGLEWMGIIYPGDSDTRYSPSFQGQVTISADKSISTAYLQWSSLKASDTAMYFCARQRTFHYDSSDYFDYWGQGTLVTVSS VL: DIQMTQSPSSVSASVGDRVTITCRASQGISSWLAWYQQKPGKAPKLLIYAASSLQNGVPSRFSGSGSGTDFTLTISSLQPEDFATYFCQQADSFPRTFGQGTKLEIK
0.2 | 0.29 | 6E7 antibody affinity modulation variant V83 (antibody, V domains shown) VH: EVQLVQSGAEVKKPGESLKISCKGSGYSFTSYWIAWVRQMPGKGLEWMGIIYPGDSDTRYSPSFQGQVTISADKSISTAYLQWSSLKASDTAMYFCARQRTFYYDSSDYFDYWGQGTLVTVSS VL: DIQMTQSPSSVSASVGDRVTITCRASQGISSWLAWYQQKPGKAPKLLIYAASSLQNGVPSRFSGSGSGTDFTLTISSLQPEDFATYFCQQAVSFPRTFGQGTKLEIK
0.3 | 0.79 | 6E7 antibody affinity modulation variant V82 (antibody, V domains shown) VH: EVQLVQSGAEVKKPGESLKISCKGSGYSFTSYWIAWVRQMPGKGLEWMGIIYPGDSDTRYSPSFQGQVTISADKSISTAYLQWSSLKASDTAMYFCARQRTFYYDSSDYFDYWGQGTLVTVSS VL: DIQMTQSPSSVSASVGDRVTITCRASQGISSWLAWYQQKPGKAPKLLIYAGSSLQNGVPSRFSGSGSGTDFTLTISSLQPEDFATYFCQQADSFPRTFGQGTKLEIK
0.33 | 0.36 | 6E7 antibody affinity modulation variant V90 (antibody, V domains shown) VH: EVQLVQSGAEVKKPGESLKISCKGSGYSFTSEWIAWVRQMPGKGLEWMGIIYPGDSDTRYSPSFQGQVTISADKSISTAYLQWSSLKASDTAMYFCARQRTFYYDSSDYFDYWGQGTLVTVSS VL: DIQMTQSPSSVSASVGDRVTITCRASQGISRWLAWYQQKPGKAPKLLIYAASSLQNGVPSRFSGSGSGTDFTLTISSLQPEDFATYFCQQADSFPRTFGQGTKLEIK

The remaining lines, values behind:

Binder | Binding Signal (fold over 6E7 parental antibody) [1] [fold] | Binding Signal (fold over 6E7 parental antibody) [2] [fold]
6E7 antibody affinity modulation variant V70 (antibody, V domains shown) VH: EVQLVQSGAEVKKPGESLKISCKGSGYSFTSYWIAWVRQMPGKGLEWMGIIYPGDSDTRYSPSFQGQVTISADKSISTAYLQWSSLKASDTAMYFCARQRTFYYDSSDYFDYWGQGTLVTVSS VL: DIQMTQSPSSVSASVGDRVTITCRASQGISSWLAWYQQKPGKAPKLLIYAAGSLQNGVPSRFSGSGSGTDFTLTISSLQPEDFATYFCQQADSFPRTFGQGTKLEIK | 0.79 | 0.84
6E7 antibody affinity modulation variant V9 (antibody, V domains shown) VH: EVQLVQSGAEVKKPGESLKISCKGSGYSFTSYWIAWVRQMPGKGLEWMGIIYPGDSDTRYSPSFQGQVTISADKSISTAYLQWSSLKASDTAMYFCARQRGFYYDSSDYFDYWGQGTLVTVSS VL: DIQMTQSPSSVSASVGDRVTITCRASQGISSWLAWYQQKPGKAPKLLIYAASSLQNGVPSRFSGSGSGTDFTLTISSLQPEDFATYFCQQADSFPRTFGQGTKLEIK | 0.67 | 0.54
6E7 antibody affinity modulation variant V8 (antibody, V domains shown) VH: EVQLVQSGAEVKKPGESLKISCKGSGYSFTSYWIAWVRQMPGKGLEWMGIIYPGDSDTKYSPSFQGQVTISADKSISTAYLQWSSLKASDTAMYFCARQRTFYYDSSDYFDYWGQGTLVTVSS VL: DIQMTQSPSSVSASVGDRVTITCRASQGISSWLAWYQQKPGKAPKLLIYAASSLQNGVPSRFSGSGSGTDFTLTISSLQPEDFATYFCQQADSFPRTFGQGTKLEIK | 0.28 | 0.77
6E7 antibody affinity modulation variant V10 (antibody, V domains shown) VH: EVQLVQSGAEVKKPGESLKISCKGSGYSFTSYWIAWVRQMPGKGLEWMGIIYPGDSDTRYSPSFQGQVTISADKSISTAYLQWSSLKASDTAMYFCARQRTFYYDSSDYFDYWGQGTLVTVSS VL: DIQMTQSPSSVSASVGDRVTITCRASQGISSWLAWYQQKPGKAPKLLIYSASSLQNGVPSRFSGSGSGTDFTLTISSLQPEDFATYFCQQADSFPRTFGQGTKLEIK | 0.76 | 0.7
6E7 antibody affinity modulation variant V80 (antibody, V domains shown) VH: EVQLVQSGAEVKKPGESLKISCKGSGYSFTSYWIAWVRQMPGKGLEWMGIIYPGDSDTRYSPSFQGQVTISADKSISTAYLQWSSLKASDTAMYFCARQRNFYYDSSDYFDYWGQGTLVTVSS VL: DIQMTQSPSSVSASVGDRVTITCRASQGISSWLAWYQQKPGKAPKLLIYAASSLQNGVPSRFSGSGSGTDFTLTISSLQPEDFATYFCQQADSFPRTFGQGTKLEIK | 0.59 | 0.5
6E7 antibody affinity modulation variant V71 (antibody, V domains shown) VH: EVQLVQSGAEVKKPGESLKISCKGSGYSFTSYWIAWVRQMPGKGLEWMGIIYPGDSDTRYSPSFQGQVTISADKSISTAYLQWSSLKASDTAMYFCARQRTFYYDSSDYFDYWGQGTLVTVSS VL: DIQMTQSPSSVSASVGDRVTITCRASQGISSWLAWYQQKPGKAPKLLIYAASSLQNGVPSRFSGSGSGTDFTLTISSLQPEDFATYFCQQADSEPRTFGQGTKLEIK | 0.37 | 0.48
6E7 antibody affinity modulation variant V81 (antibody, V domains shown) VH: EVQLVQSGAEVKKPGESLKISCKGSGYSFTSYWIAWVRQMPGKGLEWMGIIYPGDSDTRYSPSFQGQVTISADKSISTAYLQWSSLKASDTAMYFCARQRTFYYDSSDYFDYWGQGTLVTVSS VL: DIQMTQSPSSVSASVGDRVTITCRASQGISSLLAWYQQKPGKAPKLLIYAASSLQNGVPSRFSGSGSGTDFTLTISSLQPEDFATYFCQQADSFPRTFGQGTKLEIK | 0.17 | 0.23
6E7 antibody affinity modulation variant V6 (antibody, V domains shown) VH: EVQLVQSGAEVKKPGESLKISCKGSGYSFTSMWIAWVRQMPGKGLEWMGIIYPGDSDTRYSPSFQGQVTISADKSISTAYLQWSSLKASDTAMYFCARQRTFYYDSSDYFDYWGQGTLVTVSS VL: DIQMTQSPSSVSASVGDRVTITCRASQGISSWLAWYQQKPGKAPKLLIYAASSLQNGVPSRFSGSGSGTDFTLTISSLQPEDFATYFCQQADSFPRTFGQGTKLEIK | 0.2 | 0.56
6E7 antibody affinity modulation variant V79 (antibody, V domains shown) VH: EVQLVQSGAEVKKPGESLKISCKGSGYSFTSYWIAWVRQMPGKGLEWMGIIYPGDSDTNYSPSFQGQVTISADKSISTAYLQWSSLKASDTAMYFCARQRTFYYDSSDYFDYWGQGTLVTVSS VL: DIQMTQSPSSVSASVGDRVTITCRASQGISSWLAWYQQKPGKAPKLLIYAASSLQNGVPSRFSGSGSGTDFTLTISSLQPEDFATYFCQQADSFPRTFGQGTKLEIK | 0.7 | 0.52
6E7 antibody affinity modulation variant V78 (antibody, V domains shown) VH: EVQLVQSGAEVKKPGESLKISCKGSGYRFTSYWIAWVRQMPGKGLEWMGIIYPGDSDTRYSPSFQGQVTISADKSISTAYLQWSSLKASDTAMYFCARQRTFYYDSSDYFDYWGQGTLVTVSS VL: DIQMTQSPSSVSASVGDRVTITCRASQGISSWLAWYQQKPGKAPKLLIYAASSLQNGVPSRFSGSGSGTDFTLTISSLQPEDFATYFCQQADSFPRTFGQGTKLEIK | 0.86 | 1.11
6E7 antibody affinity modulation variant V7 (antibody, V domains shown) VH: EVQLVQSGAEVKKPGESLKISCKGSGYSFTSEWIAWVRQMPGKGLEWMGIIYPGDSDTRYSPSFQGQVTISADKSISTAYLQWSSLKASDTAMYFCARQRTFYYDSSDYFDYWGQGTLVTVSS VL: DIQMTQSPSSVSASVGDRVTITCRASQGISSWLAWYQQKPGKAPKLLIYAASSLQNGVPSRFSGSGSGTDFTLTISSLQPEDFATYFCQQADSFPRTFGQGTKLEIK | 0.11 | 0.32
